Reference: PMC11472053, “Structural basis of DNA recognition by BEN domain proteins reveals a role for oligomerization in unmethylated DNA selection by BANP” (Nucleic Acids Research, 2024)

T1: BANP BEN WT (human, UniProt Q8N9N5 205-325)
T1 sequence: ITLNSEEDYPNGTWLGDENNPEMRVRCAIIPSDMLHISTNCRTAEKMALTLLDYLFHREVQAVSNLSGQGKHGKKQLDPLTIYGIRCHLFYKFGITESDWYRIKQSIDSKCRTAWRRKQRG

T2: BANP CC-BEN (ΔDBD) (human, UniProt Q8N9N5 1-360)
T2 sequence: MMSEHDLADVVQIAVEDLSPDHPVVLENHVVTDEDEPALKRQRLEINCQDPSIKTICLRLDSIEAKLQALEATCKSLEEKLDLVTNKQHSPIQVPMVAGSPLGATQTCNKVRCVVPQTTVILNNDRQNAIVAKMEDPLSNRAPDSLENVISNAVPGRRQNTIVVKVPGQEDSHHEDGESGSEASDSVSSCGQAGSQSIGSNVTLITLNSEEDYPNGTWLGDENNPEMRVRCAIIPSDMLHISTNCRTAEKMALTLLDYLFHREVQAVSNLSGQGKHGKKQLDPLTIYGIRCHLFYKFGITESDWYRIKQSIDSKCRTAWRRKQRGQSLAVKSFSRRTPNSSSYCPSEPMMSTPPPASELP

T3: BANP full-length WT (human, UniProt Q8N9N5 1-519)
T3 sequence: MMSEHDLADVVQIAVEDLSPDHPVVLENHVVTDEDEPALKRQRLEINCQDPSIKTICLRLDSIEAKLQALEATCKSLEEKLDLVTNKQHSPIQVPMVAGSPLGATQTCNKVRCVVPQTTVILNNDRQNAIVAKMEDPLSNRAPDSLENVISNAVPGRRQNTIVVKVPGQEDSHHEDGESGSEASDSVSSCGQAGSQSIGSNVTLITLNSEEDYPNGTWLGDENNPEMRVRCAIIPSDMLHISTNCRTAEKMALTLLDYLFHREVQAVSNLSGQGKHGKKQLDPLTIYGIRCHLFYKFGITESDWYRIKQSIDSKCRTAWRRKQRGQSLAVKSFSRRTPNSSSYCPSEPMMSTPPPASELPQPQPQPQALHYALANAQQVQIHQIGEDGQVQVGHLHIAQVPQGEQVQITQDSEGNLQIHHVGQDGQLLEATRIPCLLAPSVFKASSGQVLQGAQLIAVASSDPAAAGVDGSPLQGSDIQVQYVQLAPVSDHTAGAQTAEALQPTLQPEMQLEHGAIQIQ

T4: BANP ΔCC (human, UniProt Q8N9N5 90-519)
T4 sequence: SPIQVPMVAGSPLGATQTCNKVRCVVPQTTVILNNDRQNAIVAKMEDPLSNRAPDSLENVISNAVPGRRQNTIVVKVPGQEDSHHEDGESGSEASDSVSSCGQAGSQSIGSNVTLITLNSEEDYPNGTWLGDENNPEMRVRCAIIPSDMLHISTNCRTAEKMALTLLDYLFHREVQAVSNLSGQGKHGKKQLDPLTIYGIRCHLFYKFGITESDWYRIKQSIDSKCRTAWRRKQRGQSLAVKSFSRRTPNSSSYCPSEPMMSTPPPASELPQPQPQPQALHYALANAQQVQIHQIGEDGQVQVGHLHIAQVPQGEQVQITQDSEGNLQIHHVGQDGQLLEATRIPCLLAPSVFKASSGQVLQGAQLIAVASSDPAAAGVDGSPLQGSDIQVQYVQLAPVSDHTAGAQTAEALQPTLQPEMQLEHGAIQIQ

T5: GST-BANP BEN (human, UniProt Q8N9N5 205-325)
T5 sequence: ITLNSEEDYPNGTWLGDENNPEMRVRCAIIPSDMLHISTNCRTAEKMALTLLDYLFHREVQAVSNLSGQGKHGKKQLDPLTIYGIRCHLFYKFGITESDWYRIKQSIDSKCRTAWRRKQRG

T6: BANP BEN-DBD (human, UniProt Q8N9N5 205-519)
T6 sequence: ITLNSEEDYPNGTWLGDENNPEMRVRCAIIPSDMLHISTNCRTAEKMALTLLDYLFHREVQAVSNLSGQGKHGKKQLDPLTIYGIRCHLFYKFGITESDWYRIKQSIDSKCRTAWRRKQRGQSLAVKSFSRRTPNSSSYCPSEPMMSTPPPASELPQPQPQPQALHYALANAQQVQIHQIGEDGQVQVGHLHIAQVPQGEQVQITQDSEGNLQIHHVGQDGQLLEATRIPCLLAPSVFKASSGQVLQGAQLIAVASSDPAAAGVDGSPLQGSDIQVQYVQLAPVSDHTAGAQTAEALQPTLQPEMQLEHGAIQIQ

T7: NACC1 BEN D462A (human, UniProt Q96RE7 341-477, D462A)
T7 sequence: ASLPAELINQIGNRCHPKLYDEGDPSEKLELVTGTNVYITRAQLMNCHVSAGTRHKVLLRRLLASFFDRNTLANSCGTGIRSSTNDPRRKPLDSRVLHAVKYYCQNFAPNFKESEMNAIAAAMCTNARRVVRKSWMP

T8: NACC1 BEN R429A (human, UniProt Q96RE7 341-477, R429A)
T8 sequence: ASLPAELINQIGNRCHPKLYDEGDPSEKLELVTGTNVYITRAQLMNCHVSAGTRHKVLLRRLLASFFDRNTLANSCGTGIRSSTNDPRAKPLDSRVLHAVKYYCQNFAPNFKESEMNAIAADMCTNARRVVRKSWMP

T9: NACC1 BEN R421A (human, UniProt Q96RE7 341-477, R421A)
T9 sequence: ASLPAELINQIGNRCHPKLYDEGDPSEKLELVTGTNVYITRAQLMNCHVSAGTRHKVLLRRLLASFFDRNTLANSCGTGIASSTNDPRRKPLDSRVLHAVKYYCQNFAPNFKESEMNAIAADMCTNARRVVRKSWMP

T10: NACC1 BEN N466A (human, UniProt Q96RE7 341-477, N466A)
T10 sequence: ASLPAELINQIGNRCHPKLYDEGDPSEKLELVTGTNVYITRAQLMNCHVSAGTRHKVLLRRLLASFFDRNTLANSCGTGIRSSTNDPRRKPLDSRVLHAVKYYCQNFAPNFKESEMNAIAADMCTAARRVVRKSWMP

T11: NACC1 BEN WT (human, UniProt Q96RE7 341-477)
T11 sequence: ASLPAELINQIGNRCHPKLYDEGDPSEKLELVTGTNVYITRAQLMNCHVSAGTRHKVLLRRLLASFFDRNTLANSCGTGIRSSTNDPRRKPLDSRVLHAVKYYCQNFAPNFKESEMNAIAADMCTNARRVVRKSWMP

T12: NACC1 BEN R472A (human, UniProt Q96RE7 341-477, R472A)
T12 sequence: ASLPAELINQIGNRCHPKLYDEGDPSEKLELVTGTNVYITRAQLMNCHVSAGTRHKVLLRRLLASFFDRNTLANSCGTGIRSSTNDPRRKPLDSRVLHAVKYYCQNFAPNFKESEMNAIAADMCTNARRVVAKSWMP

T13: NACC1 BEN R469A (human, UniProt Q96RE7 341-477, R469A)
T13 sequence: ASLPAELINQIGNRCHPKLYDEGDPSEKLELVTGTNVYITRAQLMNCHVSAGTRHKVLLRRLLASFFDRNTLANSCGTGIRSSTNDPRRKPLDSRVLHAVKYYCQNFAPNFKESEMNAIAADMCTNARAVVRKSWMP


Legend:
BANP BEN WT = molecular target: T1, BANP BEN WT; assay: ITC; ITC: 20 mM Tris pH 7.5, 200 mM NaCl, 2 mM beta-mercaptoethanol, 20 C; EMSA: 20 mM Tris pH 7.0, 200 mM NaCl, 2 mM DTT, 4 C, 1.2% agarose in TAE; conditions: protein: recombinant; tags: His-SUMO or His-MBP, cleaved; chain copies: 2; blunt, self-complementary
BANP CC-BEN (ΔDBD) = molecular target: T2, BANP CC-BEN (ΔDBD); assay: as above; conditions: protein: recombinant; tags: His-SUMO or His-MBP, cleaved; blunt, self-complementary
BANP full-length WT = molecular target: T3, BANP full-length WT; assay: as above; conditions: protein: recombinant; tags: His-SUMO or His-MBP, cleaved; chain copies: 4; blunt, self-complementary
BANP ΔCC = molecular target: T4, BANP ΔCC; assay: as above; conditions: protein: recombinant; tags: His-SUMO or His-MBP, cleaved; blunt, self-complementary
GST-BANP BEN = molecular target: T5, GST-BANP BEN; assay: as above; conditions: protein: recombinant; tags: N-terminal GST fusion; chain copies: 2; blunt, self-complementary
BANP BEN-DBD = molecular target: T6, BANP BEN-DBD; assay: as above; conditions: protein: recombinant; tags: His-SUMO or His-MBP, cleaved; blunt, self-complementary
NACC1 BEN D462A = molecular target: T7, NACC1 BEN D462A; assay: as above; conditions: protein: recombinant; tags: His-SUMO or His-MBP, cleaved; blunt, self-complementary
NACC1 BEN R429A = molecular target: T8, NACC1 BEN R429A; assay: as above; conditions: protein: recombinant; tags: His-SUMO or His-MBP, cleaved; blunt, self-complementary
NACC1 BEN R421A = molecular target: T9, NACC1 BEN R421A; assay: as above; conditions: protein: recombinant; tags: His-SUMO or His-MBP, cleaved; blunt, self-complementary
NACC1 BEN N466A = molecular target: T10, NACC1 BEN N466A; assay: as above; conditions: protein: recombinant; tags: His-SUMO or His-MBP, cleaved; blunt, self-complementary
NACC1 BEN WT = molecular target: T11, NACC1 BEN WT; assay: as above; conditions: protein: recombinant; tags: His-SUMO or His-MBP, cleaved; blunt, self-complementary
NACC1 BEN R472A = molecular target: T12, NACC1 BEN R472A; assay: as above; conditions: protein: recombinant; tags: His-SUMO or His-MBP, cleaved; blunt, self-complementary
NACC1 BEN R469A = molecular target: T13, NACC1 BEN R469A; assay: ITC; Kd N.A.; almost completely abolished; ITC: 20 mM Tris pH 7.5, 200 mM NaCl, 2 mM beta-mercaptoethanol, 20 C; EMSA: 20 mM Tris pH 7.0, 200 mM NaCl, 2 mM DTT, 4 C, 1.2% agarose in TAE; conditions: protein: recombinant; tags: His-SUMO or His-MBP, cleaved; blunt, self-complementary

Binder	Kd (BANP BEN WT) [µM]	Kd (BANP CC-BEN (ΔDBD)) [µM]	Kd (BANP full-length WT) [µM]	Kd (BANP ΔCC) [µM]	Kd (GST-BANP BEN) [µM]	Kd (BANP BEN-DBD) [µM]	Kd (NACC1 BEN D462A) [µM]	Kd (NACC1 BEN R429A) [µM]	Kd (NACC1 BEN R421A) [µM]	Kd (NACC1 BEN N466A) [µM]	Kd (NACC1 BEN WT) [µM]	Kd (NACC1 BEN R472A) [µM]	binding result (NACC1 BEN R469A)
12-mCGCG (dsDNA, 5-methyl-C at position 5 of each strand (palindrome; called hemi-methylated, one CpG methylated)) DNA 1: ATCTCGCGAGAT DNA 2: ATCTCGCGAGAT	5.6 ± 0.7	4.3 ± 0.8	4.9 ± 1.4	5.6 ± 0.9	3.5 ± 0.6	8.3 ± 0.6	–	–	–	–	–	–	–
12-CATG (dsDNA) DNA 1: ATTACATGTAAT DNA 2: ATTACATGTAAT	–	–	–	–	–	–	4.6 ± 0.4	34.7 ± 4.5	4.6 ± 0.6	2.9 ± 0.4	1.3 ± 0.2	8.6 ± 1.4	no binding
